{
  "source": "patent US9340769B2",
  "about": "(priority 2008, dated 2016)",
  "key": {"[1]": {"system": "HaCaT cells co-cultured with P. acnes", "test": "P. acnes-mediated cell death: neutralization assay / ASMase inhibitor, HaCaT", "conditions": "desipramine 10 μM, 14 hr; 43.4% with PBS vehicle"}, "[2]": {"system": "P. acnes", "test": "Effect of desipramine on P. acnes-induced inflammation in vivo (ear thickness)", "parameters": "species or system ICR mice", "conditions": "20 mg/kg i.p. 30 min before challenge; 24 hr", "description": "(A) Amount of soluble ASMase in mouse ear increased 24 hr after bacteria challenge. Ears of ICR mice were intradermally injected with of P. acnes in PBS (1×10^7 CFU/20 μl; left ear) or PBS (20 μl; right ear), and excised after 24 hr. Ear tissue was obtained with a 8 mm biopsy and homogenized in PBS. The supernatant (1 ug of total protein) was subjected to Western blotting. ASMase (upper panels) and GAPDH (lower panels) were detected with goat anti-ASMase IgG followed by anti-GAPDH IgG (left panels). Normal goat or mouse IgG was used as a negative control for the detection (right panels). (B) P. acnes challenge into mouse ear attracted CD11b+ macrophages which highly expressed ASMase. Frozen sections of mouse ear obtained 24 after bacteria challenge were stained with biotinylated anti-mouse CD11b IgG, a conventional macrophage marker, and TRITC-streptavidin conjugate, followed by Goat anti-ASMase IgG and anti-goat IgG-TRITC conjugate. The nuclei were stained with DAPI (blue). Bar=200 μm. (C) Transmission electron microscopy (10,000× magnification) was used to visualize colonized P. acnes and ruptured cell membrane in mouse ears injected with P. acnes or PBS. PA, P. acnes; CM, cell membrane; NC, nucleus. Bar=1 μm. (D) Systemic pre-treatment of ICR mice with selective ASMase inhibitor relieved P. acnes-induced inflammation. […]"}, "[3]": {"system": "stratum corneum barrier", "assay_type": "in vivo, ICR mice"}, "[4]": {"system": "sialidase", "test": "Immunogenicity of sialidase vaccines (Western blot, antigen microarray)", "conditions": "recombinant protein with Freund (in)complete adjuvants; three weeks after immunization"}, "[5]": {"system": "P. acnes", "test": "P. acnes-induced ear thickness/redness in immunized mice (subcutaneous ear challenge)"}, "[6]": {"system": "human SZ95 sebocytes", "test": "Susceptibility of sialidase-treated sebocytes to P. acnes (cell death by trypan blue, adherence by CFU)", "conditions": "pre-treatment 10 μg/ml for 2 h; GFP no effect"}, "[7]": {"system": "sialic acids on the surface of human SZ95 sebocytes", "test": "Sialidase enzyme activity: removal of surface sialic acids from sebocytes (MAA lectin I / streptavidin-FITC flow cytometry)", "conditions": "compared among three cloned P. acnes sialidases"}},
  "data": [
    {"molecule": "CNCCCN1c2ccccc2CCc2ccccc21", "note": "[desipramine]", "values": [
      {"measurement": "P. acnes-induced cell death, reduced by (HaCaT)", "setting": "[1]", "result": 21.9, "unit": "%"},
      {"measurement": "P. acnes-induced ear swelling", "setting": "[2]", "result": "significantly relieved"}
    ]},
    {"molecule": "CCCCCCCCCCCCCCO[C@@H]1O[C@H](CO)[C@@H](O[C@H]2O[C@H](CO)[C@@H](O)[C@H](O)[C@H]2O)[C@H](O)[C@H]1O", "note": "[TDM, tetradecyl-β-D-maltoside]", "values": [
      {"measurement": "effect on stratum corneum barrier", "setting": "[3]; 0.125% in sterile water, 15 min", "result": "slightly disrupts"},
      {"measurement": "effect on epicutaneous immunization of E. coli based-tetanus toxin C fragment vaccine", "setting": "[3]; mouse, in vivo", "result": "greatly enhances"}
    ]},
    {"molecule": "sialidase: recombinant P. acnes cell wall-anchored sialidase (gi|50843035) 6×NH fusion protein; enzyme and, with Freund adjuvants, vaccine (protein, left off: small tags and cut ends) MTLTTKLSALAIAGIMAVIGAPMVTQSAMASGRAPAPDAATTQPKLVTGDITSTDQSGTHLFFGKNIVRNAKGAIMKVDRTWPAAVPAPLPDVRADSSTRMLLGPVVDLAVNEHPAGVFYRIPALATASNGDLLASYDLRPGSAADAPNPNSIVQRRSRDNGRTRGPQTVIHAGTLGRRKVGYSDPSYLVDPATGHILNFHVKSYDRGFATSEVGTDPDDRHVLHAEVSTSTDNGHTWTYRDITREITPDPTTRTRFVASGQGIALLHGPHAGGLIAQMTVRNSVGQQAQSIYSDDHGITWHAGNPVGRMMDENKVVELSDGTLMLNSRDAARSGRRKVAYSHDGGLTWGPVKLVDDLIDPTNNAQIIRAYPNARAGSAKARILLFTNARNATERVNGTLSVSCDDGRTWVSHQTYMPGEVGYTTAAVQSDGALGVLWERDGIRYSTIPMGWLNSVCPVAPSGRPTSGEPTSGTSLPLTATPSGSLHGGASSRPTSLPHTGD", "values": [
      {"measurement": "anti-sialidase antibody in serum (Western blot)", "setting": "[4]", "result": "strong band"},
      {"measurement": "elevation of ear thickness, reduced by", "setting": "[5]; recombinant sialidase with Freund (in)complete adjuvants vs GFP-immunized, P. acnes 10^7 CFU s.c.", "result": "more than 50%"},
      {"measurement": "recovery of ear redness, days after P. acnes challenge", "setting": "[5]; sialidase-immunized, GFP-immunized 7 days", "result": 3, "unit": "days"},
      {"measurement": "adherence of P. acnes into sebocytes", "setting": "[6]", "result": "considerably increased"},
      {"measurement": "enzyme activity in removing the sialic acids from the surface of human SZ95 sebocytes", "setting": "[7]", "result": "strongest enzyme activity"}
    ]}
  ]
}
